# Data from paper PMC5201418.
# Tests used:
# [1] = biological target: TbAdoMetDC-W137A/M146A (Trypanosoma brucei)
# [2] = biological target: Trypanosoma brucei S-adenosylmethionine decarboxylase, wild type (Trypanosoma brucei)
# [3] = biological target: N-terminally truncated TbAdoMetDCΔ26 (Trypanosoma brucei)
# [4] = biological target: TbAdoMetDC H172A (Trypanosoma brucei)
# Trypanosoma brucei S-adenosylmethionine decarboxylase, wild type (Trypanosoma brucei), sequence (P50244 1-85, tags left off, chain 1 of 2): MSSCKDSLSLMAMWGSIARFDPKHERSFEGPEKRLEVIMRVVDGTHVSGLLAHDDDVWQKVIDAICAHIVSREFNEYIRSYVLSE
# Trypanosoma brucei S-adenosylmethionine decarboxylase, wild type (Trypanosoma brucei), sequence (P50244 86-370 limits assumed, chain 2 of 2): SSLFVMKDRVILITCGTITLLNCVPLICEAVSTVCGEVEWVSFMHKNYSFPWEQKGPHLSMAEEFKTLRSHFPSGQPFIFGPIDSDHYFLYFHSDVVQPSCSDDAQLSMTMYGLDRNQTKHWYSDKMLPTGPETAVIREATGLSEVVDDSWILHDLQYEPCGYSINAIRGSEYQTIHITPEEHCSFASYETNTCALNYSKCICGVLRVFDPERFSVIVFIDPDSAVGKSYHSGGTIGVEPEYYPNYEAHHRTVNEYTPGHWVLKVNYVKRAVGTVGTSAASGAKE
substance,measurement,setting,value
"Trypanosoma brucei prozyme, wild type (natural protein)","kcat/Km of AdoMet decarboxylation (14C-AdoMet, 37°C) by the TbAdoMetDC/prozyme heterodimer, with 4 mM putrescine",[1],87 s^−1M^−1
same,"kcat/Km of AdoMet decarboxylation (14C-AdoMet, 37°C) by the TbAdoMetDC/prozyme heterodimer, without putrescine",[1],5 s^−1M^−1
same,"kcat/Km of AdoMet decarboxylation (14C-AdoMet, 37°C) by the TbAdoMetDC/prozyme heterodimer, with 4 mM putrescine",[2],3200 s^−1M^−1
same,"kcat/Km of AdoMet decarboxylation (14C-AdoMet, 37°C) by the TbAdoMetDC/prozyme heterodimer, without putrescine",[2],2600 s^−1M^−1
same,"kcat/Km of AdoMet decarboxylation (14C-AdoMet, 37°C) by the TbAdoMetDC/prozyme heterodimer, with 4 mM putrescine",[3],7.6 s^−1M^−1
same,"kcat/Km of AdoMet decarboxylation (14C-AdoMet, 37°C) by the TbAdoMetDC/prozyme heterodimer, without putrescine",[3],2.2 s^−1M^−1
same,"kcat/Km of AdoMet decarboxylation (14C-AdoMet, 37°C) by the TbAdoMetDC/prozyme heterodimer, with 4 mM putrescine",[4],2100 s^−1M^−1
same,"kcat/Km of AdoMet decarboxylation (14C-AdoMet, 37°C) by the TbAdoMetDC/prozyme heterodimer, without putrescine",[4],93 s^−1M^−1
prozyme-M148'A/Y152'A (natural protein),"kcat/Km of AdoMet decarboxylation (14C-AdoMet, 37°C) by the TbAdoMetDC/prozyme heterodimer, with 4 mM putrescine",[2],660 s^−1M^−1
same,"kcat/Km of AdoMet decarboxylation (14C-AdoMet, 37°C) by the TbAdoMetDC/prozyme heterodimer, without putrescine",[2],16 s^−1M^−1
